{"source": "the Human Domainome abundance scans (Beltran et al. 2025)", "parents": {"B1": {"name": "Ras GTPase-activating protein 1, residues 281 to 341; numbered along this chain, P20936 (parent)", "chain": "RRRVRAILPYTKVPDTDEISFLKGDMFIVHNELEDGWMWVTNLRTDEQGLIVEDLVEEVGR"}}, "note": "± gives the uncertainty stated by the source."}
{"variants_of": "B1", "assay": "abundance fitness (aPCA) (normalised: wild type 0, dead -1); higher = more abundant; growth selection in yeast, the domain comes from the species named", "settings": "Homo sapiens"}
{"variant": "RRRVRAILPYTKVPDTDEISFLKGDMFIVHNELEDGWPWVTNLRTDEQGLIVEDLVEEVGR", "note": "[M38P]", "abundance fitness": "-0.867 ± 0.098"}
{"variant": "RRRVRAILPYTKVPDTDEISFLKGDMFIVHNELEDGWKWVTNLRTDEQGLIVEDLVEEVGR", "note": "[M38K]", "abundance fitness": "-0.414 ± 0.075"}
{"variant": "RRRVRAILPYTKVPDTDEISFLKGDMFIVHNELEDGWYWVTNLRTDEQGLIVEDLVEEVGR", "note": "[M38Y]", "abundance fitness": "-0.188 ± 0.028"}
{"variant": "RRRVRAILPYTKVPDTDEISFLKGDMFIVHNELEDGWGWVTNLRTDEQGLIVEDLVEEVGR", "note": "[M38G]", "abundance fitness": "-0.78 ± 0.044"}
{"variant": "RRRVRAILPYTKVPDTDEISFLKGDMFIVHNELEDGWRWVTNLRTDEQGLIVEDLVEEVGR", "note": "[M38R]", "abundance fitness": "-0.505 ± 0.038"}
{"variant": "RRRVRAILPYTKVPDTDEISFLKGDMFIVHNELEDGWQWVTNLRTDEQGLIVEDLVEEVGR", "note": "[M38Q]", "abundance fitness": "-0.548 ± 0.17"}
{"variant": "RRRVRAILPYTKVPDTDEISFLKGDMFIVHNELEDGWVWVTNLRTDEQGLIVEDLVEEVGR", "note": "[M38V]", "abundance fitness": "-0.305 ± 0.028"}
{"variant": "RRRVRAILPYTKVPDTDEISFLKGDMFIVHNELEDHWMWVTNLRTDEQGLIVEDLVEEVGR", "note": "[G36H]", "abundance fitness": "-0.161 ± 0.034"}
{"variant": "RRRVRAILPYTKVPDTDEISFLKGDMFIVHNELEDWWMWVTNLRTDEQGLIVEDLVEEVGR", "note": "[G36W]", "abundance fitness": "-0.867 ± 0.095"}
{"variant": "RRRVRAILPYTKVPDTDEISFLKGDMFIVHNELEDMWMWVTNLRTDEQGLIVEDLVEEVGR", "note": "[G36M]", "abundance fitness": "-0.928 ± 0.12"}
{"variant": "RRRVRAILPYTKVPDTDEISFLKGDMFIVHNELEDQWMWVTNLRTDEQGLIVEDLVEEVGR", "note": "[G36Q]", "abundance fitness": "-0.557 ± 0.09"}
{"variant": "RRRVRAILPYTKVPDTDEISFLKGDMFIVHNELEDLWMWVTNLRTDEQGLIVEDLVEEVGR", "note": "[G36L]", "abundance fitness": "-0.6 ± 0.057"}
{"variant": "RRRVRAILPYTKVPDTDEISFLKGDMFIVHNELEDYWMWVTNLRTDEQGLIVEDLVEEVGR", "note": "[G36Y]", "abundance fitness": "-0.874 ± 0.048"}
{"variant": "RRRVRAILPYTKVPDTDEISFLKGDMFIVHNELEDRWMWVTNLRTDEQGLIVEDLVEEVGR", "note": "[G36R]", "abundance fitness": "-0.188 ± 0.028"}
{"variant": "RRRVRAILPYTKVPDTDEISFLKGDMFIVHNELEDIWMWVTNLRTDEQGLIVEDLVEEVGR", "note": "[G36I]", "abundance fitness": "-0.88 ± 0.051"}
{"variant": "RRRVRAILPYTKVPDTDEISFLKGDMFIVHNELEDPWMWVTNLRTDEQGLIVEDLVEEVGR", "note": "[G36P]", "abundance fitness": "-0.597 ± 0.055"}
{"variant": "RRRVRAILPYTKVPDTDEISFLKGDMFIVHNELEDVWMWVTNLRTDEQGLIVEDLVEEVGR", "note": "[G36V]", "abundance fitness": "-0.876 ± 0.044"}
{"variant": "RRRVRAILPYTKVPDTDEISFLKGDMFIVHNELEDNWMWVTNLRTDEQGLIVEDLVEEVGR", "note": "[G36N]", "abundance fitness": "-0.149 ± 0.028"}
{"variant": "RRRVRAILPYTKVPDTDEISFLKGDMFIVHNELEDKWMWVTNLRTDEQGLIVEDLVEEVGR", "note": "[G36K]", "abundance fitness": "-0.344 ± 0.097"}
{"variant": "RRRVRAILPYTKVPDTDEISFLKGDMFIVHNELEDGWMWVANLRTDEQGLIVEDLVEEVGR", "note": "[T41A]", "abundance fitness": "-0.633 ± 0.045"}
{"variant": "RRRVRAILPYTKVPDTDEISFLKGDMFIVHNELEDGWMWVHNLRTDEQGLIVEDLVEEVGR", "note": "[T41H]", "abundance fitness": "-0.078 ± 0.034"}
{"variant": "RRRVRAILPYTKVPDTDEISFLKGDMFIVHNELEDGWMWVGNLRTDEQGLIVEDLVEEVGR", "note": "[T41G]", "abundance fitness": "-0.941 ± 0.046"}
{"variant": "RRRVRAILPYTKVPDTDEISFLKGDMFIVHNELEDGWMWVKNLRTDEQGLIVEDLVEEVGR", "note": "[T41K]", "abundance fitness": "-0.143 ± 0.057"}
{"variant": "RRRVRAILPYTKVPDTDEISFLKGDMFIVHNELEDGWMWVDNLRTDEQGLIVEDLVEEVGR", "note": "[T41D]", "abundance fitness": "-0.862 ± 0.053"}
{"variant": "RRRVRAILPYTKVPDTDEISFLKGDMFIVHNELEDGWMWVINLRTDEQGLIVEDLVEEVGR", "note": "[T41I]", "abundance fitness": "-0.594 ± 0.038"}
{"variant": "RRRVRAILPYTKVPDTDEISFLKGDMFIVHNELEDGWMWVFNLRTDEQGLIVEDLVEEVGR", "note": "[T41F]", "abundance fitness": "-0.88 ± 0.05"}
{"variant": "RRRVRAILPYTKVPDTDEISFLKGDMFIVHNELEDGWMWVCNLRTDEQGLIVEDLVEEVGR", "note": "[T41C]", "abundance fitness": "-0.425 ± 0.028"}
{"variant": "RRRVRAILPYTKVPDTDEISFLKGDMFIVHNELEDGWMWNTNLRTDEQGLIVEDLVEEVGR", "note": "[V40N]", "abundance fitness": "-0.987 ± 0.061"}
{"variant": "RRRVRAILPYTKVPDTDEISFLKGDMFIVHNELEDGWMWFTNLRTDEQGLIVEDLVEEVGR", "note": "[V40F]", "abundance fitness": "-0.881 ± 0.045"}
{"variant": "RRRVRAILPYTKVPDTDEISFLKGDMFIVHNELEDGWMWHTNLRTDEQGLIVEDLVEEVGR", "note": "[V40H]", "abundance fitness": "-0.858 ± 0.063"}
{"variant": "RRRVRAILPYTKVPDTDEISFLKGDMFIVHNELEDGWMWCTNLRTDEQGLIVEDLVEEVGR", "note": "[V40C]", "abundance fitness": "-0.102 ± 0.027"}
{"variant": "RRRVRAILPYTKVPDTDEISFLKGDMFIVHNELEDGWMWSTNLRTDEQGLIVEDLVEEVGR", "note": "[V40S]", "abundance fitness": "-0.826 ± 0.036"}
{"variant": "RRRVRAILPYTKVPDTDEISFLKGDMFIVHNELEDGWMWATNLRTDEQGLIVEDLVEEVGR", "note": "[V40A]", "abundance fitness": "0.002 ± 0.033"}
{"variant": "RRRVRAILPYTKVPDTDEISFLKGDMFIVHNELEDGWMWRTNLRTDEQGLIVEDLVEEVGR", "note": "[V40R]", "abundance fitness": "-0.836 ± 0.048"}
{"variant": "RRRVRAILPYTKVPDTDEISFLKGDMFIVHNELEDGWMWETNLRTDEQGLIVEDLVEEVGR", "note": "[V40E]", "abundance fitness": "-1.13 ± 0.24"}
{"variant": "RRRVRAILPYTKVPDTDEISFLKGDMFIVHNELEDGWMWITNLRTDEQGLIVEDLVEEVGR", "note": "[V40I]", "abundance fitness": "-0.829 ± 0.048"}
{"variant": "RRRVRAILPYTKVPDTDEISFLKGDMFIVHNELEDGWMWTTNLRTDEQGLIVEDLVEEVGR", "note": "[V40T]", "abundance fitness": "-0.672 ± 0.054"}
{"variant": "RRRVRAILPYTKVPDTDEISFLKGDMFIVHNELEDGWMWLTNLRTDEQGLIVEDLVEEVGR", "note": "[V40L]", "abundance fitness": "-0.935 ± 0.062"}
{"variant": "RRRVRAILPYTKVPDTDEISFLKGDMFIVHNELEDGWMWDTNLRTDEQGLIVEDLVEEVGR", "note": "[V40D]", "abundance fitness": "-0.846 ± 0.048"}
{"variant": "RRRVRAILPYTKVPDTDEISFLKGDMFIVHNELEDGWMWKTNLRTDEQGLIVEDLVEEVGR", "note": "[V40K]", "abundance fitness": "-0.682 ± 0.1"}
{"variant": "RRRVRAILPYTKVPDTDEISFLKGDMFIVHNELEDGWMWPTNLRTDEQGLIVEDLVEEVGR", "note": "[V40P]", "abundance fitness": "-0.77 ± 0.073"}
{"variant": "RRRVRAILPYTKVPDTDEISFLKGDMFIVHNELEDGWMWGTNLRTDEQGLIVEDLVEEVGR", "note": "[V40G]", "abundance fitness": "-0.547 ± 0.029"}
{"variant": "RRRVRAILPYTKVPDTDEISFLKGDMFIVHNELEDGWMWQTNLRTDEQGLIVEDLVEEVGR", "note": "[V40Q]", "abundance fitness": "-1.01 ± 0.21"}
{"variant": "RRRVRAILPYTKVPDTDEISFLKGDMFIVHNELEDGWMWWTNLRTDEQGLIVEDLVEEVGR", "note": "[V40W]", "abundance fitness": "-0.917 ± 0.14"}
